Reference: patent US20200369747A1 (ICHNOS SCIENCES, published 2020)

Target: CD3ε on Jurkat-NFAT responder cells (UniProt P07766 23-207)
Test: cell-based or functional assay

Sequence of CD3ε on Jurkat-NFAT responder cells (P07766 23-207): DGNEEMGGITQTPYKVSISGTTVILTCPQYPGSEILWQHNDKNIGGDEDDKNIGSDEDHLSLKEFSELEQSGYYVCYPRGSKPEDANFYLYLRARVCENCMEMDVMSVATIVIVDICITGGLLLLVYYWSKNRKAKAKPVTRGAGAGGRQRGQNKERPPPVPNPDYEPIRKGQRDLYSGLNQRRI

B1: BEAT®3 (bispecific antibody, human IgG1, kappa, L234A L235A)
chain 1: EVQLVESGGGLVQPGGSLRLSCAASGFTFNTYAMNWVRQAPGKGLEWVARIRSKYNNYATYYADSVKSRFTISRDDSKNTLYLQMNSLRAEDTAVYYCVRHGNFGNSYVSYFAYWGQGTTVTVSSGGGGSGGGGSGGGGSEIVVTQSPATLSVSPGERATLSCRSSTGAVTESNYANWVQEKPGQAFRGLIGGANKRAPGVPARFSGSLSGDEATLTISSLQSEDFAVYYCALFYSNTWVFGQGTKLEIKGGGGTQVQLQESGPGLVKPSETLSLTCTVSGGSVSSGDYYWTWIRQSPGKGLEWIGHIYYSGNTNYNPSLKSRLTISIDTSKTQFSLKLSSVTAADTAIYYCVRDRVTGAFDIWGQGTMVTVSSASTKGPSVFPLAPSSKSTSGGTAALGCLVKDYFPEPVTVSWNSGALTSGVHTFPAVLQSSGLYSLSSVVTVPSSSLGTQTYICNVNHKPSNTKVDKKVEPKSCDKTHTCPPCPAPEAAGGPSVFLFPPKPKDTLMISRTPEVTCVVVDVSHEDPEVQFKWYVDGVEVHNAKTKPREEQYNSTFRVVSVLTVLHQDWLNGKEYKCKVSNKALPAPIEKTISKTKGQPREPAVYTLPPSREEMTKNQVKLVCLVTGFYPSDIAVEWESSGQPENNYYTTPPMLDSDGSFSLVSWLNVDKSRWQQGNIFSCSVMHEALHNRFTQKSLSLSPG
chain 2: not shown
chain 3: DKTHTCPPCPAPEAAGGPSVFLFPPKPKDTLMISRTPEVTCVVVDVSHEDPEVKFNWYVDGVEVHNAKTKPREEQYNSTYRVVSVLTVLHQDWLNGKEYKCKVSNKALPAPIEKTISKAKGQPREPEVATFPPSRDELTKNQVTLVCLVTGFYPSDIAVEWESNGQPENNYKTDPPLLESDGSFALSSRLRVDKSRWQQGNVFSCSVMHEALHNHYTQKSLSLSPG
Question: Which “EC50 of NFAT-luciferase luminescence (Jurkat-NFAT responder cells co-incubated with SK-BR-3 target cells); sample: BEAT®3 High pH T2h” value does the source give for B1 here?
Answer: 0.0065 µg/ml

Question: What about the “EC50 of NFAT-luciferase luminescence (Jurkat-NFAT responder cells co-incubated with SK-BR-3 target cells); sample: BEAT®3 High pH T4h” value of the same binder?
Answer: 0.0074 µg/ml
